Assay results published in patent US11708423B2, “Chimeric engulfment receptor molecules and methods of use” (CERO THERAPEUTICS, INC., priority 2017, dated 2023).

B1: CER21: Tim4 binding and transmembrane domains, TLR8 signaling domain; SEQ ID NO:88 (protein)
chain: MSKGLLLLWLVTELWWLYLTPAASEDTIIGFLGQPVTLPCHYLSWSQSRNSMCWGKGSCPNSKCNAELLRTDGTRIISRKSTKYTLLGKVQFGEVSLTISNTNRGDSGVYCCRIEVPGWFNDVKKNVRLELRRATTTKKPTTTTRPTTTPYVTTTTPELLPTTVMTTSVLPTTTPPQTLATTAFSTAVTTCPSTTPGSFSQETTKGSAFTTESETLPASNHSQRSMMTISTDIAVLRPTGSNPGILPSTSQLTTQKTTLTTSESLQKTTKSHQINSRQTILIIACCVGFVLMVLLFLAFLHHLFYWDVWFIYNVCLAKVKGYRSLSTSQTFYDAYISYDTKDASVTDWVINELRYHLEESRDKNVLLCLEERDWDPGLAIIDNLMQSINQSKKTVFVLTKKYAKSWNFKTAFYLALQRLMDENMDVIIFILLEPVLQHSQYLRLRQRICKSSILQWPDNPKAEGLFWQTLRNVVLTENDSRYNNMYVDSIKQY
modifications: CER21 chimeric engulfment receptor
B2: CER104: Tim4 binding and transmembrane domains, TLR8 primary and DAP12 secondary signaling domains; SEQ ID NO:133 (protein)
chain: MSKGLLLLWLVTELWWLYLTPAASEDTIIGFLGQPVTLPCHYLSWSQSRNSMCWGKGSCPNSKCNAELLRTDGTRIISRKSTKYTLLGKVQFGEVSLTISNTNRGDSGVYCCRIEVPGWFNDVKKNVRLELRRATTTKKPTTTTRPTTTPYVTTTTPELLPTTVMTTSVLPTTTPPQTLATTAFSTAVTTCPSTTPGSFSQETTKGSAFTTESETLPASNHSQRSMMTISTDIAVLRPTGSNPGILPSTSQLTTQKTTLTTSESLQKTTKSHQINSRQTILIIACCVGFVLMVLLFLAFLHHLFYWDVWFIYNVCLAKVKGYRSLSTSQTFYDAYISYDTKDASVTDWVINELRYHLEESRDKNVLLCLEERDWDPGLAIIDNLMQSINQSKKTVFVLTKKYAKSWNFKTAFYLALQRLMDENMDVIIFILLEPVLQHSQYLRLRQRICKSSILQWPDNPKAEGLFWQTLRNVVLTENDSRYNNMYVDSIKQYYFLGRLVPRGRGAAEAATRKQRITETESPYQELQGQRSDVYSDLNTQRPYYK
modifications: CER104 protein
B3: CER122: Tim4 binding and transmembrane domains, TLR2 primary and DAP12 secondary signaling domains; SEQ ID NO:149 (protein)
chain: MSKGLLLLWLVTELWWLYLTPAASEDTIIGFLGQPVTLPCHYLSWSQSRNSMCWGKGSCPNSKCNAELLRTDGTRIISRKSTKYTLLGKVQFGEVSLTISNTNRGDSGVYCCRIEVPGWFNDVKKNVRLELRRATTTKKPTTTTRPTTTPYVTTTTPELLPTTVMTTSVLPTTTPPQTLATTAFSTAVTTCPSTTPGSFSQETTKGSAFTTESETLPASNHSQRSMMTISTDIAVLRPTGSNPGILPSTSQLTTQKTTLTTSESLQKTTKSHQINSRQTILIIACCVGFVLMVLLFLAFLHRFHGLWYMKMMWAWLQAKRKPRKAPSRNICYDAFVSYSERDAYWVENLMVQELENFNPPFKLCLHKRDFIPGKWIIDNIIDSIEKSHKTVFVLSENFVKSEWCKYELDFSHFRLFDENNDAAILILLEPIEKKAIPQRFCKLRKIMNTKTYLEWPMDEAQREGFWVNLRAAIKSYFLGRLVPRGRGAAEAATRKQRITETESPYQELQGQRSDVYSDLNTQRPYYK
modifications: CER122 protein

Experiments:
[1] = test system: H1975 lung adenocarcinoma cells; experiment: LDH assay, H1975 cells, 48 hours co-culture with 1 μM Osimeritinib; type: cell-based; conditions: E:T 1:1, 48 hours, CD4+ T cells
Text: CER30 comprises a Tim4 binding domain, Tim4 transmembrane domain, and an engulfment signaling domain comprising a primary engulfment signaling domain comprising a TRAF2 signaling domain. CER30 has a polypeptide sequence as set forth in SEQ ID NO:96. CER110 has a polypeptide sequence of SEQ ID NO:125 and comprises a Tim4 binding domain, Tim4 transmembrane domain, and an engulfment signaling domain comprising a primary engulfment signaling domain comprising a TRAF6 signaling domain and a secondary engulfment signaling domain comprising a DAP12 signaling domain. CER112 has a polypeptide sequence of SEQ ID NO:128 and comprises a Tim4 binding domain, Tim4 transmembrane domain, and an engulfment signaling domain comprising a primary engulfment signaling domain comprising a TRAF6 signaling domain and a secondary engulfment signaling domain comprising a NFAM1 signaling domain. CER127 has a polypeptide sequence of SEQ ID NO:175 and comprises a Tim4 binding domain, Tim4 transmembrane domain, and an engulfment signaling domain comprising a primary engulfment signaling domain comprising a TRAF2 signaling domain and a secondary engulfment signaling domain comprising a TLR2 signaling domain. H1975 cells are more resistant to EGFR inhibitors, so Osimeritinib was used at slightly higher concentration. H1975 lung adenocarcinoma cells harboring an EGFR mutation were co-cultured with CER-expressing or mock-transduced (vector only) CD4+ T cells with 1 μM of Osimeritinib. After 48 hours of co-culture at a 1:1 effector:target cell ratio, T cells were washed away, and the number of viable H1975 cells was quantified using a calorimetric LDH assay (FIG. 57). Cell viability experiments were performed in triplicate and presented as % of control.

A549 ALK+ cells = experiment: MTT viability and bright field microscopy of A549 ALK+ cells with CER T cells and ALK inhibitor; type: cell-based; conditions: for in vitro growth/viability of A549 ALK+ cells (MTT): Alectinib or Crizotinib 250 nM-10 μM, E:T 2:1 and 5:1
Text: An […] translocation was introduced into A549 cells. […] CER104 has a polypeptide sequence set forth in SEQ ID NO:133 and comprises a Tim4 binding domain, Tim4 transmembrane domain, and an engulfment signaling domain comprising a primary engulfment signaling domain comprising a TLR8 signaling domain and a secondary engulfment signaling domain comprising a DAP12 signaling domain. CER122 has a polypeptide sequence set forth in SEQ ID NO:149 and comprises a Tim4 binding domain, Tim4 transmembrane domain, and an engulfment signaling domain comprising a primary engulfment signaling domain comprising a TLR2 signaling domain and a secondary engulfment signaling domain comprising a DAP12 signaling domain. Effector:target (E:T) cell ratio for co-culture was 2:1 or 5:1. […] Cell viability experiments were performed in triplicates and presented as % of control. Best-fit curves were generated from raw data using linear regression models.
CER21−, CER108−, CER104−, and CER129-transduced CD4+ T cells were tested for their ability to kill A549 ALK+ cells in the presence of ALK inhibitor. CD4+ T cells were transduced with a lentiviral vector comprising a CER21, CER108, CER104, CER129, CER27, CER120, CER122, CER123, CER124, or CER126 nucleic acid. […] After 48 hours of co-culture, T cells were washed away and the number of viable A549 ALK+ cells was quantified using a calorimetric MTT assay (FIGS. 67A-B). Cell viability experiments were performed in triplicates and presented as % of control. Bright field microscopy images were also obtained from A549 ALK+co-culture experiments. […] Arrow indicates cluster of dead A549 ALK+ cells surrounded by phagocytic CER104+ T cells. […]

Row | Molecule | killing of H1975 cells (LDH) [1] | bright field microscopy of A549 ALK+ co-culture (A549 ALK+ cells; Alectinib 3.7 μM, 48 hours, vs mock-transduced T cells) | in vitro growth/viability of A549 ALK+ cells (MTT) (A549 ALK+ cells; 48 hours) | in vitro growth/viability of A549 ALK+ cells (MTT) (A549 ALK+ cells; 72 hours)
1 | B1 | synergistic killing of H1975 lung adenocarcinoma cells upon EGFR inhibition |  |  | 
2 | B2 | synergistic killing of H1975 lung adenocarcinoma cells upon EGFR inhibition | cluster of dead A549 ALK+ cells surrounded by phagocytic CER104^+ T cells | synergistically suppress in vitro growth of NSCLC cells harboring ALK rearrangements | synergistically suppress in vitro growth of NSCLC cells harboring ALK rearrangements
3 | B3 | synergistic killing of H1975 lung adenocarcinoma cells upon EGFR inhibition |  | synergistically suppress in vitro growth of NSCLC cells harboring ALK rearrangements | synergistically suppress in vitro growth of NSCLC cells harboring ALK rearrangements
